From the supplement of paper PMC9233669
Fewer inactive variants are shown than the library holds.

Tests used:
biotinyl-Phe-oxazolone = assay: self-aminoacylation, catalytic enhancement (BFO) (fold over background); higher = more active; k-Seq, kA / k0A0; sequences stand for … in GGGAAUGGAUCCACAUCUACGAAUUC…UUCACUGCAGACUUGACGAAGCUG
Outline: (§1)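 Catalytic enhancement equals the median kA over the uncatalyzed rate, the latter read from the low-activity peak of a bimodal Gaussian fit. Values of kA came from fitting each sequence's fraction reacted to a pseudo-first-order model, with 1000 bootstraps. Reacted RNA was captured with streptavidin and quantified by triplicate qPCR and Illumina sequencing after 90 minutes at room temperature with 2–1250 μM biotinyl-aminoacyl-oxazolone and 0.43 μM mutagenized RNA pools bearing a 21-nt variable region.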

biotinyl-Met-oxazolone = assay: self-aminoacylation, catalytic enhancement (BMO) (fold over background); higher = more active; k-Seq, kA / k0A0; sequences stand for … in GGGAAUGGAUCCACAUCUACGAAUUC…UUCACUGCAGACUUGACGAAGCUG
Outline: as §1

biotinyl-Leu-oxazolone = assay: self-aminoacylation, catalytic enhancement (BLO) (fold over background); higher = more active; k-Seq, kA / k0A0; sequences stand for … in GGGAAUGGAUCCACAUCUACGAAUUC…UUCACUGCAGACUUGACGAAGCUG
Outline: as §1

biotinyl-Trp-oxazolone = assay: self-aminoacylation, catalytic enhancement (BWO) (fold over background); higher = more active; k-Seq, kA / k0A0; sequences stand for … in GGGAAUGGAUCCACAUCUACGAAUUC…UUCACUGCAGACUUGACGAAGCUG
Outline: as §1

## AAGCUUGCUAACAGUCGCAAG [Fam3.1 aminoacylation ribozyme variant]
biotinyl-Phe-oxazolone
  self-aminoacylation: 3.33
biotinyl-Met-oxazolone
  self-aminoacylation: 2.4
biotinyl-Leu-oxazolone
  self-aminoacylation: 2.5

## AAGUGUGCUAAUAGUCGCGAG [Fam3.1 aminoacylation ribozyme variant]
biotinyl-Leu-oxazolone
  self-aminoacylation: 2.47
biotinyl-Trp-oxazolone
  self-aminoacylation: 2.41

## AAGUUUACUAAAAGUCGCAAG [Fam3.1 aminoacylation ribozyme variant]
biotinyl-Phe-oxazolone
  self-aminoacylation: 2.76
biotinyl-Leu-oxazolone
  self-aminoacylation: 2.08

## AAGUUUGUUAAUAGUCGCAGG [Fam3.1 aminoacylation ribozyme variant]
biotinyl-Phe-oxazolone
  self-aminoacylation: 5.46
biotinyl-Leu-oxazolone
  self-aminoacylation: 2.45
biotinyl-Trp-oxazolone
  self-aminoacylation: 2.06

## AAUUUUGCUAAUAGUCGCAUG [Fam3.1 aminoacylation ribozyme variant]
biotinyl-Phe-oxazolone
  self-aminoacylation: 3.03
biotinyl-Met-oxazolone
  self-aminoacylation: 2.28
biotinyl-Trp-oxazolone
  self-aminoacylation: 3.4

## ACGUUUGCCAAUAGUCGCAAG [Fam3.1 aminoacylation ribozyme variant]
biotinyl-Phe-oxazolone
  self-aminoacylation: 6.32
biotinyl-Met-oxazolone
  self-aminoacylation: 2.04
biotinyl-Leu-oxazolone
  self-aminoacylation: 2.16

## ACGUUUGCUAAUAGUCGCCAG [Fam3.1 aminoacylation ribozyme variant]
biotinyl-Phe-oxazolone
  self-aminoacylation: 2.03
biotinyl-Met-oxazolone
  self-aminoacylation: 2.26
biotinyl-Trp-oxazolone
  self-aminoacylation: 2.59

## AGGUCUGCUAAUAGUCGCAAG [Fam3.1 aminoacylation ribozyme variant]
biotinyl-Phe-oxazolone
  self-aminoacylation: 37
biotinyl-Met-oxazolone
  self-aminoacylation: 2.08
biotinyl-Trp-oxazolone
  self-aminoacylation: 9.95

## AUCCACCUAGGUCAUAGGGUG [Fam2.2 aminoacylation ribozyme variant]
biotinyl-Phe-oxazolone
  self-aminoacylation: 2.19
biotinyl-Leu-oxazolone
  self-aminoacylation: 2.16
biotinyl-Trp-oxazolone
  self-aminoacylation: 2.2

## AUGACCCUGGUCAUCAAGUGA [Fam2.1 aminoacylation ribozyme variant]
biotinyl-Phe-oxazolone
  self-aminoacylation: 2.74
biotinyl-Met-oxazolone
  self-aminoacylation: 2.4
biotinyl-Leu-oxazolone
  self-aminoacylation: 2.28
biotinyl-Trp-oxazolone
  self-aminoacylation: 2.06

## AUUAACCUAGAUCAUCGGGUG [Fam2.2 aminoacylation ribozyme variant]
biotinyl-Phe-oxazolone
  self-aminoacylation: 14.9
biotinyl-Met-oxazolone
  self-aminoacylation: 2.81
biotinyl-Leu-oxazolone
  self-aminoacylation: 2.84
biotinyl-Trp-oxazolone
  self-aminoacylation: 2.54

## AUUACCCUGCUCUUCGAGUGA [Fam2.1 aminoacylation ribozyme variant]
biotinyl-Phe-oxazolone
  self-aminoacylation: 2.38
biotinyl-Met-oxazolone
  self-aminoacylation: 2.02
biotinyl-Leu-oxazolone
  self-aminoacylation: 2.36
biotinyl-Trp-oxazolone
  self-aminoacylation: 2.72

## AUUACCCUGGGCAUCGAGUGU [Fam2.1 aminoacylation ribozyme variant]
biotinyl-Phe-oxazolone
  self-aminoacylation: 2.53
biotinyl-Met-oxazolone
  self-aminoacylation: 2.02
biotinyl-Trp-oxazolone
  self-aminoacylation: 2.31

## AUUACCCUGGGGAUCGAGUGA [Fam2.1 aminoacylation ribozyme variant]
biotinyl-Phe-oxazolone
  self-aminoacylation: 14.1
biotinyl-Met-oxazolone
  self-aminoacylation: 2.55
biotinyl-Leu-oxazolone
  self-aminoacylation: 3.34
biotinyl-Trp-oxazolone
  self-aminoacylation: 3.94

## AUUACCCUGGUCAUCCAGUGC [Fam2.1 aminoacylation ribozyme variant]
biotinyl-Phe-oxazolone
  self-aminoacylation: 5.75
biotinyl-Leu-oxazolone
  self-aminoacylation: 2.19

## AUUACUCUGGUCAUCGAGGGA [Fam2.1 aminoacylation ribozyme variant]
biotinyl-Met-oxazolone
  self-aminoacylation: 2.09
biotinyl-Trp-oxazolone
  self-aminoacylation: 2.13

## AUUAUCCUGGUCAUCGAGGGA [Fam2.1 aminoacylation ribozyme variant]
biotinyl-Leu-oxazolone
  self-aminoacylation: 2.02

## AUUCACAUAGGUCAUCGGGGG [Fam2.2 aminoacylation ribozyme variant]
biotinyl-Met-oxazolone
  self-aminoacylation: 2.28
biotinyl-Trp-oxazolone
  self-aminoacylation: 2.66

## AUUCACCGAGGUCAUCGGGAG [Fam2.2 aminoacylation ribozyme variant]
biotinyl-Phe-oxazolone
  self-aminoacylation: 4.74
biotinyl-Met-oxazolone
  self-aminoacylation: 2.23

## AUUCACCUAGAUCAUCGGGUA [Fam2.2 aminoacylation ribozyme variant]
biotinyl-Phe-oxazolone
  self-aminoacylation: 5.46
biotinyl-Met-oxazolone
  self-aminoacylation: 2.12

## AUUCACCUAGGUCAUCUCGUG [Fam2.2 aminoacylation ribozyme variant]
biotinyl-Phe-oxazolone
  self-aminoacylation: 5.77
biotinyl-Leu-oxazolone
  self-aminoacylation: 2.29

## AUUUCCCUGGUCAUCAAGUGA [Fam2.1 aminoacylation ribozyme variant]
biotinyl-Phe-oxazolone
  self-aminoacylation: 2.51
biotinyl-Leu-oxazolone
  self-aminoacylation: 2.2
biotinyl-Trp-oxazolone
  self-aminoacylation: 2.88

## CAGCUUCAAACAAUCGGUCUG [Fam1A.1 aminoacylation ribozyme variant]
biotinyl-Phe-oxazolone
  self-aminoacylation: 52
biotinyl-Leu-oxazolone
  self-aminoacylation: 2.01
biotinyl-Trp-oxazolone
  self-aminoacylation: 27.1

## CCACACUUCAAGCAAGCGGUG [Fam1B.1 aminoacylation ribozyme variant]
biotinyl-Met-oxazolone
  self-aminoacylation: 2.45
biotinyl-Leu-oxazolone
  self-aminoacylation: 3.19
biotinyl-Trp-oxazolone
  self-aminoacylation: 2.4

## CCACACUUCGAGCAAUCGGGC [Fam1B.1 aminoacylation ribozyme variant]
biotinyl-Phe-oxazolone
  self-aminoacylation: 9.16
biotinyl-Leu-oxazolone
  self-aminoacylation: 2.07

## CCACAGUUCAAGCAAUCGCUC [Fam1B.1 aminoacylation ribozyme variant]
biotinyl-Phe-oxazolone
  self-aminoacylation: 2.03
biotinyl-Leu-oxazolone
  self-aminoacylation: 2.43

## CCACUUCAAUCAAUCGGUCUG [Fam1A.1 aminoacylation ribozyme variant]
biotinyl-Phe-oxazolone
  self-aminoacylation: 41.8
biotinyl-Leu-oxazolone
  self-aminoacylation: 2.1
biotinyl-Trp-oxazolone
  self-aminoacylation: 29.4

## CCCGACUUCAAGCAAUCGGUC [Fam1B.1 aminoacylation ribozyme variant]
biotinyl-Phe-oxazolone
  self-aminoacylation: 91.8
biotinyl-Leu-oxazolone
  self-aminoacylation: 2.85
biotinyl-Trp-oxazolone
  self-aminoacylation: 47.6

## CGACUUCAAACAAUCGGUUUG [Fam1A.1 aminoacylation ribozyme variant]
biotinyl-Phe-oxazolone
  self-aminoacylation: 63.5
biotinyl-Leu-oxazolone
  self-aminoacylation: 2.33
biotinyl-Trp-oxazolone
  self-aminoacylation: 32.7

## CUACUUCAAACAAUCGCUGUG [Fam1A.1 aminoacylation ribozyme variant]
biotinyl-Leu-oxazolone
  self-aminoacylation: 2.54

## CUACUUCAAAUAAUCGGUCUU [Fam1A.1 aminoacylation ribozyme variant]
biotinyl-Phe-oxazolone
  self-aminoacylation: 9.54
biotinyl-Trp-oxazolone
  self-aminoacylation: 5.86

## CUACUUCAACCAAUCGGUGUG [Fam1A.1 aminoacylation ribozyme variant]
biotinyl-Phe-oxazolone
  self-aminoacylation: 4.96
biotinyl-Trp-oxazolone
  self-aminoacylation: 4.66

## CUACUUCAAGAAAUCGGUCUG [Fam1A.1 aminoacylation ribozyme variant]
biotinyl-Phe-oxazolone
  self-aminoacylation: 4.36
biotinyl-Trp-oxazolone
  self-aminoacylation: 3.05

## CUACUUCAAGCAAUCGGUCUG [Fam1A.1 aminoacylation ribozyme variant]
biotinyl-Phe-oxazolone
  self-aminoacylation: 13.6
biotinyl-Trp-oxazolone
  self-aminoacylation: 7.74

## CUACUUCAAGUAAUCGGUCUG [Fam1A.1 aminoacylation ribozyme variant]
biotinyl-Phe-oxazolone
  self-aminoacylation: 9.14
biotinyl-Trp-oxazolone
  self-aminoacylation: 6.74

## CUACUUCAGACAAUCGGCCUG [Fam1A.1 aminoacylation ribozyme variant]
biotinyl-Phe-oxazolone
  self-aminoacylation: 3.82
biotinyl-Trp-oxazolone
  self-aminoacylation: 2.23

## CUCCUUCAAACAAUCGGACUG [Fam1A.1 aminoacylation ribozyme variant]
biotinyl-Phe-oxazolone
  self-aminoacylation: 12.9
biotinyl-Trp-oxazolone
  self-aminoacylation: 8.83

## CUCCUUCAAACAAUCGGUCAG [Fam1A.1 aminoacylation ribozyme variant]
biotinyl-Phe-oxazolone
  self-aminoacylation: 14
biotinyl-Trp-oxazolone
  self-aminoacylation: 7.87

## CUCCUUCAAACAAUCGGUCCG [Fam1A.1 aminoacylation ribozyme variant]
biotinyl-Phe-oxazolone
  self-aminoacylation: 6.9
biotinyl-Trp-oxazolone
  self-aminoacylation: 6.67

## CUGCCUCAAACAAUCGGUCUG [Fam1A.1 aminoacylation ribozyme variant]
biotinyl-Phe-oxazolone
  self-aminoacylation: 34.5
biotinyl-Trp-oxazolone
  self-aminoacylation: 20.9

## CUGCUUCAAACAAUCGAUCUG [Fam1A.1 aminoacylation ribozyme variant]
biotinyl-Phe-oxazolone
  self-aminoacylation: 7.44
biotinyl-Trp-oxazolone
  self-aminoacylation: 2.77

## CUGUUUCAAACAAUCGGUCUG [Fam1A.1 aminoacylation ribozyme variant]
biotinyl-Phe-oxazolone
  self-aminoacylation: 96.2
biotinyl-Leu-oxazolone
  self-aminoacylation: 2.48
biotinyl-Trp-oxazolone
  self-aminoacylation: 38.4

## CUUCACCUAGGUCAUCGGGUC [Fam2.2 aminoacylation ribozyme variant]
biotinyl-Phe-oxazolone
  self-aminoacylation: 3.47
biotinyl-Trp-oxazolone
  self-aminoacylation: 2.29

## CUUCUUCAAACAAUCGGUGUG [Fam1A.1 aminoacylation ribozyme variant]
biotinyl-Phe-oxazolone
  self-aminoacylation: 4.48
biotinyl-Trp-oxazolone
  self-aminoacylation: 2.46

## CUUCUUCAAAUAAUCGGUCUG [Fam1A.1 aminoacylation ribozyme variant]
biotinyl-Phe-oxazolone
  self-aminoacylation: 10.7
biotinyl-Trp-oxazolone
  self-aminoacylation: 7.57

## CUUCUUCAACCAAUCGGUCUG [Fam1A.1 aminoacylation ribozyme variant]
biotinyl-Phe-oxazolone
  self-aminoacylation: 9.05
biotinyl-Trp-oxazolone
  self-aminoacylation: 6.07

## GAGUUUGCUAAUAGUCGAAAG [Fam3.1 aminoacylation ribozyme variant]
biotinyl-Phe-oxazolone
  self-aminoacylation: 13.3
biotinyl-Trp-oxazolone
  self-aminoacylation: 5.05

## GUACUUCAAACAAUCGGACUG [Fam1A.1 aminoacylation ribozyme variant]
biotinyl-Phe-oxazolone
  self-aminoacylation: 5.92
biotinyl-Trp-oxazolone
  self-aminoacylation: 5.26

## GUACUUCAAAUAAUCGGUCUG [Fam1A.1 aminoacylation ribozyme variant]
biotinyl-Phe-oxazolone
  self-aminoacylation: 10.4
biotinyl-Trp-oxazolone
  self-aminoacylation: 10.7

## UAACUUCAAACAAUCGGUCUG [Fam1A.1 aminoacylation ribozyme variant]
biotinyl-Phe-oxazolone
  self-aminoacylation: 55.3
biotinyl-Leu-oxazolone
  self-aminoacylation: 2.04
biotinyl-Trp-oxazolone
  self-aminoacylation: 27.1

## UAAUUUGCUAAUAGUCGCAAG [Fam3.1 aminoacylation ribozyme variant]
biotinyl-Phe-oxazolone
  self-aminoacylation: 2.21
biotinyl-Trp-oxazolone
  self-aminoacylation: 2.01

## UAGUUUGCUAAUAGUCGCAAG [Fam3.1 aminoacylation ribozyme variant]
biotinyl-Phe-oxazolone
  self-aminoacylation: 9.38
biotinyl-Trp-oxazolone
  self-aminoacylation: 3.18

## UCACCCUUCAAGCAAUCGGUC [Fam1B.1 aminoacylation ribozyme variant]
biotinyl-Phe-oxazolone
  self-aminoacylation: 10.5
biotinyl-Trp-oxazolone
  self-aminoacylation: 6.03

## UCACUCUUCAAGCAAUCGGUC [Fam1B.1 aminoacylation ribozyme variant]
biotinyl-Phe-oxazolone
  self-aminoacylation: 27
biotinyl-Trp-oxazolone
  self-aminoacylation: 12.7

## UCACUUCAAACAAUCGGUCUG [Fam1A.1 aminoacylation ribozyme variant]
biotinyl-Phe-oxazolone
  self-aminoacylation: 70.7
biotinyl-Leu-oxazolone
  self-aminoacylation: 2.11
biotinyl-Trp-oxazolone
  self-aminoacylation: 35.1

## UUAGUUCAAACAAUCGGUCUG [Fam1A.1 aminoacylation ribozyme variant]
biotinyl-Phe-oxazolone
  self-aminoacylation: 4.01
biotinyl-Trp-oxazolone
  self-aminoacylation: 2.94
